Laboratory results published in patent US20050042624A1, “Tumor antigen” (Kyogo ITOH, priority 2001, published 2005).

System: KE4-CTL
Assay: IFN-γ production from KE4-CTL against VA13 cells co-transfected with cDNA clone and HLA-A2601
Format: cell-based, human
Text: A gene encoding a tumor antigen recognized by KE4-CTL was isolated/identified from a human esophageal cancer cell line KE4 according to a known method [J. Exp. Med., 187: 277-288, 1998.] First of all, poly (A) ^+RNA of KE4 cells was converted to cDNA, ligated with a SalI adaptor so as to insert into the expression vector pSV-SPORT-1 (Invitrogen Corp.). Moreover, cDNA of HLA-A2601 was obtained by the reverse transcription-polymerase chain reaction (RT-PCR) and cloned into the eukaryotic cell expression vector pCR3 (Invitrogen Corp.).
A cDNA library of KE4 cells was pooled so that each pool contained 100 clones, and 200 ng of the cDNA pooled in each well and 200 ng of the HLA-A2601cDNA were mixed in 100 μl of lipofectoamine (Invitrogen Corp.)/Opti-MEM (Invitrogen Corp.) 1:200 mixture for 30 min. 50 μl of the obtained mixture was added to VA13 cells (1×10^4), and incubated for 6 h for co-transduction. Then, RPMI-1640 culture medium containing 10% FCS was added thereto and culturing was carried out for 2 days, followed by addition of KE4-CTL (2×10^5) to each well. After a further 18 h incubation, 100 μl of the supernatant was collected, and IFN-γ production was measured by ELISA.
A pool of cDNA library was screened with the criteria in which cDNA capable of enhancing IFN-γ production from KE4-CTL was judged as a positive one having CTL-activating ability. […]

B1: KE4-cl.18: cDNA clone from esophageal cancer cell line KE4 encoding KE4-18-PP (nucleic acid, listed as Homo sapiens)
DNA: GGGGCCGGGGCCGAGGCCGCGGAGCTCGCGGAGGCAAGGCCGAGGATAAGGAGTGGATGCCCGTCACCAAGTTGGGCCGCTTGGTCAAGGACATGAAGATCAAGTCCCTGGAGGAGATCTATCTCTTCTCCCTGCCCATTAAGGAATCAGAGATCATTGATTTCTTCCTGGGGGCCTCTCTCAAGGATGAGGTTTTGAAGATTATGCCAGTGCAGAAGCAGACCCGTGCCGGCCAGCGCACCAGGTTCAAGGCATTTGTTGCTATCGGGGACTACAATGGCCACGTCGGTCTGGGTGTTAAGTGCTCCAAGGAGGTGGCCACCGCCATCCGTGGGGCCATCATCCTGGCCAAGCTCTCCATCGTCCCCGTGCGCAGAGGCTACTGGGGGAACAAGATCGGCAAGCCCCACACTGTCCCTTGCAAGGTGACAGGCCGCTGCGGCTCTGTGCTGGTACGCCTCATCCCTGCACCCAGGGGCACTGGCATCGTCTCCGCACCTGTGCCTAAGAAGCTGCTCATGATGGCTGGTATCGATGACTGCTACACCTCAGCCCGGGGCTGCACTGCCACCCTGGGCAACTTCGCCAAGGCCACCTTTGATGCCATTTCTAAGACCTACAGCTACCTGACCCCCGACCTCTGGAAGGAGACTGTATTCACCAAGTCTCCCTATCAGGAGTTCACTGACCACCTCGTCAAGACCCACACCAGAGTCTCCGTGCAGCGGACTCAGGCTCCAGCTGTGGCTACAACATAGGGTTTTTATACAAGAAAAATAAAGTGAATTTAGCGTGAAAAAAAAAAAAAAAAAAAAAAAAAA
recognition of cDNA clone by KE4-CTL, enhancement of IFN-γ production: recognized by KE4-CTL in an HLA-A26-restricted manner and in a dose dependent manner of plasmid
